Measurements from patent US20080020964A1, “Test System for the Discovery of Substances for the Promotion of Neuraxonal Growth” (priority 2003, published 2008).

B1: hnRNP-Q: heterogeneous nuclear ribonucleic protein Q, epitope-tagged wildtype form overexpressed from an expression plasmid (protein, UniProt O60506 2-623, looked up)
Heterogeneous nuclear …: ATEHVNGNGTEEPMDTTSAVIHSENFQTLLDAGLPQKVAEKLDEIYVAGLVAHSDLDERAIEALKEFNEDGALAVLQQFKDSDLSHVQNKSAFLCGVMKTYRQREKQGTKVADSSKGPDEAKIKALLERTGYTLDVTTGQRKYGGPPPDSVYSGQQPSVGTEIFVGKIPRDLFEDELVPLFEKAGPIWDLRLMMDPLTGLNRGYAFVTFCTKEAAQEAVKLYNNHEIRSGKHIGVCISVANNRLFVGSIPKSKTKEQILEEFSKVTEGLTDVILYHQPDDKKKNRGFCFLEYEDHKTAAQARRRLMSGKVKVWGNVGTVEWADPIEDPDPEVMAKVKVLFVRNLANTVTEEILEKAFSQFGKLERVKKLKDYAFIHFDERDGAVKAMEEMNGKDLEGENIEIVFAKPPDQKRKERKAQRQAAKNQMYDDYYYYGPPHMPPPTRGRGRGGRGGYGYPPDYYGYEDYYDYYGYDYHNYRGGYEDPYYGYEDFQVGARGRGGRGARGAAPSRGRGAAPPRGRAGYSQRGGPGSARGVRGARGGAQQQRGRGVRGARGGRGGNVGGKRKADGYNQPDSKRRQTNNQNWGSQPIAQQPLQGGDHSGNYGYKSENQEFYQDTFGQQWK
modifications: epitope tag
B2: hnRNP-R: heterogeneous nuclear ribonucleic protein R, epitope-tagged wildtype form overexpressed from an expression plasmid (protein, UniProt O43390 2-633, looked up)
Heterogeneous nuclear …: ANQVNGNAVQLKEEEEPMDTSSVTHTEHYKTLIEAGLPQKVAERLDEIFQTGLVAYVDLDERAIDALREFNEEGALSVLQQFKESDLSHVQNKSAFLCGVMKTYRQREKQGSKVQESTKGPDEAKIKALLERTGYTLDVTTGQRKYGGPPPDSVYSGVQPGIGTEVFVGKIPRDLYEDELVPLFEKAGPIWDLRLMMDPLSGQNRGYAFITFCGKEAAQEAVKLCDSYEIRPGKHLGVCISVANNRLFVGSIPKNKTKENILEEFSKVTEGLVDVILYHQPDDKKKNRGFCFLEYEDHKSAAQARRRLMSGKVKVWGNVVTVEWADPVEEPDPEVMAKVKVLFVRNLATTVTEEILEKSFSEFGKLERVKKLKDYAFVHFEDRGAAVKAMDEMNGKEIEGEEIEIVLAKPPDKKRKERQAARQASRSTAYEDYYYHPPPRMPPPIRGRGRGGGRGGYGYPPDYYGYEDYYDDYYGYDYHDYRGGYEDPYYGYDDGYAVRGRGGGRGGRGAPPPPRGRGAPPPRGRAGYSQRGAPLGPPRGSRGGRGGPAQQQRGRGSRGSRGNRGGNVGGKRKADGYNQPDSKRRQTNNQQNWGSQPIAQQPLQQGGDYSGNYGYNNDNQEFYQDTYGQQWK
modifications: epitope tag

Assays:
PC12 cells [1] = experiment: Neurite growth in PC12 cells transiently transfected with Smn or hnRNP-R and -Q; format: cell-based, rat; settings: transient overexpression, differentiation with 50 ng/ml NGF for three days
Description: Rat pheochromocytoma cells (PC12) were cultivated in DMEM (Invitrogen, Carlsbad, Calif., USA)+10% horse serum+5% fetal calf serum+antibiotics. Before the transfection, the cells were plated out in a high density in 24-well culture dishes and transfected with 1 μg plasmid DNA (Lipofectamine 2000; Invitrogen, Carlsbad, Calif., USA). For this purpose, expression plasmids were used, into which wildtype forms marked with epitope tags (HA tag of FLAG tag) or mutated versions of Smn, hnRNP-R or hnRNP-Q have been cloned. On the day after the transfection, the cells were plated out in 35 mm culture dishes on glass plates coated with poly-DL-or nithine in a density of 1,000 cells/cm^2. As a differentiation medium, DMEM+2% horse serum and 1% fetal calf serum+50 ng/ml NGF+antibiotics were used. After three days, the cells were fixed and stained. The PC12 cells were fixed with 4% paraformaldehyde (PFA) in buffered common salt solution (PBS). […] After washing again with TBS-T, the cells were embedded in Mowiol and evaluated at the fluorescence microscope or the confocal microscope as mentioned above.

PC12 cells [2] = experiment: Neurite growth in Smn or hnRNP-R or -Q overexpressing stable PC12 cell lines; format: cell-based, rat; settings: differentiated seven days
Description: For preparing stable cell lines, PC12 cells were cultivated as described above, and transfected with expression vectors for the wildtype form or mutated Smn, hnRNP-R or hnRNP-Q. Thereafter, the cells were selected in a small cell density with the antibiotic G418 with regard to their neomycin resistance. Individual clones were tested by Western blot analysis for their stable expression of the constructs to be expressed. For measuring the neurite length, the cells were plated out as described above on coated glass plates, differentiated by the addition of differentiation medium and fixed, stained after seven days, and the neurite growth was quantified as described above.

PC12 cell lines = experiment: β-actin content in neurites and growth cones of cultivated PC12 cell lines (immunostaining); format: cell-based, rat; settings: stable PC12 cell lines, anti-actin / anti-β-actin antibodies
Description: The cultivation of PC12 cell lines and the fixation, staining and evaluation was performed as described above. As antibodies, monoclonal anti-Smn antibodies (BD Biosciences, Lexington, Ky., USA, 1:500), rabbit anti-hnRNP-R antibodies (Rossoll et al., 2002; 1:1,000), anti-actin (Roche, Bale, Switzerland, 1:200) and β-actin (Abcam, Cambridge, UK; 1:1,000) were used. Since in neurites preferably β-actin is localized, the results are similar for anti-actin and specifically anti-β-actin.

[3] = system: 3′ untranslated region of β-actin mRNA; experiment: Binding of radioactively marked β-actin mRNA to immunoprecipitated HA-marked hnRNP-R (filter, PSL); settings: HA-marked protein from transfected HEK 293 cells, 32P-marked RNA, 30 minutes at room temperature
Description: The untranslated 3′ regions of β-actin from the stop codon to the poly-A sequence or the so-called zipcode region (Kislauskis et al., 1994) were amplified by RT-PCR and cloned into a plasmid with the binding site for the T7 RNA polymerase (pTZ19). Optionally, a poly-A tail of 30 nucleotides was added. (Used primers:
actinUTRfwd […], actinUTRpolyAfullrev, ATGAGAATTC-T(30)-[…], actinUTRpolyAziprev, ATGA-GAATTC-T(30)-[…], actinUTRfullrev, […]). The plasmids were linearized by digestion with EcoRI at the 3′ end, and were purified. […]
A cell line from human embryonic kidney cells (HEK 293) was transfected with expression constructs marked by HA epitope for the wildtype forms or mutated versions of Smn or hnRNP-R. After 48 hours, the cells were lysated in lysis buffer (25 mM Tris-HCl pH=8.0, 137 mM NaCl, 2 mM EGTA, 2 mM EDTA, 10% glycerol, 1% Triton X-100, 0.05% β-mercaptoethanol and protease inhibitors; Roche, Bale, Switzerland), and the HA-marked proteins were purifies by immunoprecipitation with anti-HA agarose (HA.11, Covance, Denver, Pa., USA). […] These filters were exposed with phosphoimager plates (BAS-2500, Photo Film Europe GmbH, Duesseldorf, Germany), and the bound radioactivity was measured as photo-stimulating luminescence (PSL) by means of the AIDA software package (Raytest, Straubenhardt, Germany).

Molecule | effect on neurite growth (PC12 cells [1]) | neurite length versus control cell lines (untransfected or empty plasmid) (PC12 cells [2]) | β-actin staining in the growth zones of the neurites (PC12 cell lines) | binding to the 3′ untranslated region of β-actin mRNA [3]
SmnY272C: Smn with a point mutation, no interaction with hnRNP-R, also found in SMA patients | no stimulating effect | – | – | –
B1 | – | three times longer neurites | – | –
B2 | – | three times longer neurites | strong concentration of β-actin | bind to the 3′ untranslated region of β-actin mRNA
